{"source": "paper PMC6697466", "about": "“Interaction Between the a3 Region of Factor VIII and the TIL’E’ Domains of the von Willebrand Factor” (Biophysical Journal, 2019)", "molecules": {"B1": {"name": "VWF TIL’E’: residues 764–865 of VWF; constructs 1 and 3 used interchangeably (protein)", "chain": "SLSCRPPMVKLVCPADNLRAEGLECTKTCQNYDLECMSMGCVSGCLCPPGMVRHENRCVALERCPCFHQGKEYAPGETVKIGCNTCVCQDRKWNCTDHVCDA", "modifications": "left off: thioredoxin, N-terminal, cleaved | His6, N-terminal, cleaved", "notes": "residues 764–865 of VWF; constructs 1 and 3 used interchangeably"}, "B2": {"name": "VWF R854Q TIL’E’: VWD type 2N mutation R854Q introduced into the construct 1 background (protein)", "chain": "B1 chain with R91Q", "modifications": "left off: thioredoxin, N-terminal, cleaved | His6, N-terminal, cleaved", "notes": "VWD type 2N mutation R854Q introduced into the construct 1 background"}, "B3": {"name": "VWF R816W TIL’E’: VWD type 2N mutation R816W introduced into the construct 3 background (protein)", "chain": "B1 chain with R53W", "modifications": "left off: His6, N-terminal, cleaved | DsbC, N-terminal, cleaved | HPC4 (…: ALA linker and …), C-terminal, state not stated", "notes": "VWD type 2N mutation R816W introduced into the construct 3 background"}, "B4": {"name": "R854K: mutation R854K introduced into the construct 1 background (protein)", "chain": "B1 chain with R91K", "modifications": "left off: thioredoxin, N-terminal, cleaved | His6, N-terminal, cleaved", "notes": "mutation R854K introduced into the construct 1 background"}, "B5": {"name": "VWF GAMG-TIL’E’: four amino acids GAMG followed by residues 766–864 of VWF (protein)", "chain": "GAMGSCRPPMVKLVCPADNLRAEGLECTKTCQNYDLECMSMGCVSGCLCPPGMVRHENRCVALERCPCFHQGKEYAPGETVKIGCNTCVCQDRKWNCTDHVCD"}}, "key": {"FVIII [1]": {"tested_on": "FVIII", "details": "full-length VWF R816W; cited from earlier work", "excerpt": "Arg816 is located in the VWF TIL’ β3-β4 sheet ([31]), where the largest chemical shift changes were observed (Figs. 2 and 3)."}, "[2]": {"target": "B-domain deleted FVIII (N8, turoctocog alfa) (UniProt P00451)", "test": "ITC; MicroCal iTC200, 25 °C, 19 injections (first 0.4 uL, the rest 2 uL), 120 s between injections; who was in the syringe and the concentrations not given"}, "TIL’E’": {"tested_on": "TIL’E’", "test": "ITC of FVIII a3 peptides with TIL’E’", "type": "binding", "details": "25°C, higher concentrations not feasible due to solubility", "method": "(§1) ITC experiments were performed on a MicroCal iTC200 (Malvern Instruments, Malvern, UK) at 25°C. All experiments were performed with a total of 19 injections (the first injection 0.4 μL, the rest 2 μL), with 120 s between each injection and an initial delay of 60 s. The reference power was set to 6 μcal/s, and the syringe was stirred at 750 or 1000 Rpm depending on the specifications of the syringe. The concentrations of proteins used are specified in the figure legends."}, "VWF TIL’E’ R816W": {"tested_on": "VWF TIL’E’ R816W", "test": "NMR 15N-1H HSQC of VWF TIL’E’ R816W with FVIII a3sTyr1664-sTyr1680", "type": "binding", "details": "five molar excess of peptide, 298 K", "method": "All NMR spectra were recorded at 298 K on Bruker Avance III 700 MHz or Bruker Avance III HD 800 MHz spectrometers equipped with cryoprobes. NMR samples consisted of 10–300 μM isotope labeled TIL’E’ in 10 mM HEPES 300 mM NaCl 5 mM CaCl2 5% D2O pH 7.3.\nTwo-dimensional ^15N-^1H heteronuclear single quantum correlation (HSQC) spectra ([39]) were recorded with 3-9-19 Watergate, whereas two-dimensional methyl–transverse relaxation optimized spectroscopy (TROSY) experiments were recorded using the standard heteronuclear multiple quantum coherence pulse scheme ([40]).\nArg816 is located in the VWF TIL’ β3-β4 sheet ([31]), where the largest chemical shift changes were observed (Figs. 2 and 3). […] However, the most affected residues are located far from each other on the three-dimensional structure of VWF TIL’E’."}, "FVIII [3]": {"tested_on": "FVIII", "test": "ITC of VWF TIL’E’ constructs and mutants with FVIII", "type": "binding", "details": "25°C; for N: ITC stoichiometry", "method": "as §1"}, "[4]": {"target": "T1, VWF TIL’E’ (construct 1, residues 764–865 of VWF) (UniProt P04275 764-865)", "T1 construct": "von Willebrand factor, TIL’E’ domains, residues 764-865; mature VWF starts at Ser764; enterokinase site GTDDDDK immediately before residue 764; every result printed for plain 'VWF TIL’E’' is written on this molecule; Uniformly 15N-labelled or ILV-13CH3/2H-labelled in the NMR experiments; also called wild-type VWF TIL’E’; source: thioredoxin and His6 tag cut off with enterokinase; not shown: …", "test": "NMR titration; 15N-1H HSQC of 100 uM 15N-labelled VWF TIL’E’ free and with ~500 uM (five molar excess) unlabelled FVIII a3 peptide; 298 K; 10 mM HEPES 300 mM NaCl 5 mM CaCl2 5% D2O pH 7.3; saturation not reached, upper bound of Kd from chemical shift changes", "details": "both partners purified"}, "[5]": {"details": "ITC, three independent ITC experiments"}}, "note": "Numbering of substitutions follows the chain as printed. Numbers in names are those of the source. Where “and” joins values, the source holds several entries; their conditions need not be identical. Equal entries are not always repeated. Entries after “also recorded” stand apart in the source; their conditions may differ. Square brackets hold non-standard residues; d marks the D form. Ends that are not written are not given here. sY = N[C@@H](Cc1ccc(OS(=O)(=O)O)cc1)C(=O)O", "data": [{"molecule": "VWF R816W: full-length VWF R816W, severe VWD type 2N mutation", "values": [{"measurement": "binding to FVIII in ELISA", "setting": "FVIII [1]", "result": "does not bind FVIII"}]}, {"molecule": "VWF TIL’E’ (construct 1, residues 764–865 of VWF) (from UniProt P04275 764-865) (domain or fragment)", "values": [{"measurement": "Kd", "setting": "[2]", "result": 0.71, "unit": "µM"}, {"measurement": "dH", "setting": "[2]", "result": -12, "unit": "kcal/mol"}, {"measurement": "stoichiometry N", "setting": "[2]", "result": 1}]}, {"molecule": "VWF TIL’E’-ALA-HPC4 (construct 3, residues 764–865 with C-terminal HPC4 tag), from E. coli (from UniProt P04275 764-865) (domain or fragment)", "values": [{"measurement": "Kd", "setting": "[2]", "result": 0.64, "unit": "µM"}]}, {"molecule": "VWF TIL’E’-ALA-HPC4 expressed in HKB11 cell line (construct 4) (domain or fragment)", "values": [{"measurement": "Kd", "setting": "[2]", "result": 0.75, "unit": "µM"}]}, {"molecule": "VWF TIL’E’ R854K (in the construct 1 background) (from UniProt P04275 764-865) (domain or fragment)", "values": [{"measurement": "Kd", "setting": "[2]", "result": 25, "unit": "µM"}]}, {"molecule": "CC[C@H](C)[C@H](NC(=O)[C@H](CC(=O)O)NC(=O)[C@H](Cc1ccccc1)NC(=O)[C@H](CC(=O)O)NC(=O)[C@H](CCC(=O)O)NC(=O)[C@H](CCCCN)NC(=O)[C@H](CCCCN)NC(=O)[C@H](CCSC)NC(=O)[C@H](CCC(=O)O)NC(=O)[C@@H](NC(=O)[C@H](CO)NC(=O)[C@@H](NC(=O)[C@@H](NC(=O)[C@H](CC(=O)O)NC(=O)[C@H](CC(=O)O)NC(=O)[C@H](Cc1ccc(OS(=O)(=O)O)cc1)NC(=O)[C@H](CC(=O)O)NC(=O)[C@@H](NC(=O)[C@H](CCC(=O)O)NC(=O)[C@H](CCC(=O)O)NC(=O)[C@H](CCC(N)=O)NC(=O)[C@H](CC(=O)O)NC(=O)[C@H](CO)NC(=O)[C@H](CCC(N)=O)NC(=O)[C@H](CC(C)C)NC(=O)[C@@H](NC(=O)[C@@H](NC(=O)[C@H](CCCNC(=N)N)NC(=O)[C@@H](NC(=O)[C@@H](NC(=O)[C@@H](N)CCC(=O)O)[C@@H](C)CC)[C@@H](C)O)[C@@H](C)O)[C@@H](C)O)[C@@H](C)CC)[C@@H](C)O)[C@@H](C)CC)C(C)C)C(=O)N[C@@H](Cc1ccc(OS(=O)(=O)O)cc1)C(=O)N[C@@H](CC(=O)O)C(=O)N[C@@H](CCC(=O)O)C(=O)N[C@@H](CC(=O)O)C(=O)N[C@@H](CCC(=O)O)C(=O)N[C@@H](CC(N)=O)C(=O)N[C@@H](CCC(N)=O)C(=O)N[C@@H](CO)C(=O)N1CCC[C@H]1C(=O)N[C@@H](CCCNC(=N)N)C(=O)O", "note": "[a3sTyr1664-sTyr1680]", "values": [{"measurement": "binding to TIL’E’ by ITC (in words)", "setting": "TIL’E’", "result": "no high-affinity binding"}, {"measurement": "effect of R816W on affinity between FVIII a3 and VWF TIL’E’", "setting": "VWF TIL’E’ R816W", "result": "decreases the affinity"}]}, {"molecule": "VWF TIL’E’ R854Q (in the construct 1 background) (from UniProt P04275 764-865) (domain or fragment)", "values": [{"measurement": "Kd", "setting": "[2]", "result": 7.2, "unit": "µM"}, {"measurement": "dH", "setting": "[2]", "result": -7.5, "unit": "kcal/mol"}, {"measurement": "stoichiometry N", "setting": "[2]", "result": 1.29}]}, {"molecule": "B1", "values": [{"measurement": "N", "setting": "FVIII [3]; three independent ITC experiments", "result": "1.0 ± 0.3"}, {"measurement": "binding to FVIII by ITC (in words)", "setting": "FVIII [3]; ITC", "result": "micromolar interaction"}, {"measurement": "Kd", "setting": "FVIII [3]; [5]", "result": "0.7 µM and 0.71 µM"}, {"measurement": "ΔH", "setting": "FVIII [3]; [5]", "result": "-12.0 ± 1.3", "unit": "kcal/mol"}]}, {"molecule": "B2", "values": [{"measurement": "N", "setting": "FVIII [3]; one run", "result": "1.29 ± 0.03"}, {"measurement": "binding to FVIII by ITC (in words)", "setting": "FVIII [3]; ITC", "result": "Weak binding"}, {"measurement": "increase in Kd compared to the wild-type", "setting": "FVIII [3]; ITC", "result": "about an order of magnitude"}, {"measurement": "Kd", "setting": "FVIII [3]; ITC, one run", "result": "7.2 ± 0.6", "unit": "µM"}, {"measurement": "ΔH", "setting": "FVIII [3]; ITC, one run", "result": "-7.5 ± 0.2", "unit": "kcal/mol"}]}, {"molecule": "B3", "values": [{"measurement": "binding to FVIII by ITC (in words)", "setting": "FVIII [3]; ITC, listed as VWF TIL’E R816W", "result": "no binding was observed"}]}, {"molecule": "B4", "values": [{"measurement": "Kd", "setting": "FVIII [3]; ITC, n not given", "result": "25 ± 20", "unit": "µM"}]}, {"molecule": "EITRTTLQSDQEEID[sY]DDTISVEMKKEDFDI[sY]DEDENQSPR", "note": "[FVIII a3 peptide a3_(sTyr1664-sTyr1680) (residues 1649–1689, Tyr1664 and Tyr1680 sulfated)]", "values": [{"measurement": "Kd", "setting": "[4]", "result": "< 25000", "unit": "µM"}]}, {"molecule": "B5", "values": [{"measurement": "binding to FVIII by ITC (in words)", "setting": "FVIII [3]; ITC", "result": "substantially reduced binding; also recorded: the binding to FVIII had been abrogated; also recorded: unable to bind FVIII with micromolar affinity"}]}]}
